From patent US20230414660A1 (LUDWIG INSTITUTE FOR CANCER RESEARCH, published 2023)

B1: WT PD1 (receptor)
chain: MASDSPDRPWNPPTFSPALLVVTEGDNATFTCSFSNTSESFVLNWYRMSPSNQTDKLAAFPEDRSQPGQDARFRVTQLPNGRDFHMSVVRARRNDSGTYLCGAISLAPKAQIKESLRAELRVTERRALEHHHHHH
notes: Soluble monomeric protein made in bacteria with a C-terminal 6xHis tag and detected with anti-His antibody; also called WT PD1 decoy; WT PD-1 decoy
B2: PD1_6XDM (with 6xHis) (receptor)
chain: MASDSPDRPWNPPTFSPALLVVTEGDNATFTCSFSNTSESFVLNWYRMSPSNQVDRLAAFPEDRSQPGQDARFRVTQLPNGRDFHMSVVRARRNDSGTYFCGAISLAPKWKIKESLRAELRVTERRALEHHHHHH
notes: Soluble monomeric, bacterial production
B3: Core A (receptor)
chain: MASDSPDRPWNPPTFSPALLVVTEGDNATFTCSFSNTSESFVLNWYRESPSNQDDRLAAFPEDRSQPGQDARFRVTQLPNGRDFHMSVVRARRNDSGTYECGAISLAPKAKIKESLRAELRVTERRALEHHHHHH
notes: PD1 decoy variant, bacterial, C-terminal 6xHis
B4: B2 4XB (receptor)
chain: MASDSPDRPWNPPTFSPALLVVTEGDNATFTCSFSNTSESFVLNWYRDSPSNQDDRLAAFPEDRSQPGQDARFRVTQLPNGRDFHMSVVRARRNDSGTYLCGAISLAPKAKIKESLRAELRVTERRALEHHHHHH
notes: as for B3
B5: A132W (receptor)
chain: MASDSPDRPWNPPTFSPALLVVTEGDNATFTCSFSNTSESFVLNWYRMSPSNQTDKLAAFPEDRSQPGQDARFRVTQLPNGRDFHMSVVRARRNDSGTYLCGAISLAPKWQIKESLRAELRVTERRALEHHHHHH
notes: as for B3
B6: PD1_4XMUT (with 6xHis) (receptor)
chain: MASDSPDRPWNPPTFSPALLVVTEGDNATFTCSFSNTSESFVLNWYRESPSNQDDRLAAFPEDRSQPGQDARFRVTQLPNGRDFHMSVVRARRNDSGTYFCGAISLAPKAKIKESLRAELRVTERRALEHHHHHH
notes: as for B2
B7: X1 4XMut (receptor)
chain: MASDSPDRPWNPPTFSPALLVVTEGDNATFTCSFSNTSESFVLNWYRESPSNQDDRLAAFPEDRSQPGQDARFRVTQLPNGRDFHMSVVRARRNDSGTYLCGAISLAPKAKIKESLRAELRVTERRALEHHHHHH
notes: as for B3
B8: 6XB (receptor)
chain: MASDSPDRPWNPPTFSPALLVVTEGDNATFTCSFSNTSESFVLNWYRESPSNQDDRLAAFPEDRSQPGQDARFRVTQLPNGRDFHMSVVRARRNDSGTYICGAISLAPKWKIKESLRAELRVTERRALEHHHHHH
notes: as for B3
B9: M70E (receptor)
chain: MASDSPDRPWNPPTFSPALLVVTEGDNATFTCSFSNTSESFVLNWYRESPSNQTDKLAAFPEDRSQPGQDARFRVTQLPNGRDFHMSVVRARRNDSGTYLCGAISLAPKAQIKESLRAELRVTERRALEHHHHHH
notes: as for B3
B10: Core_W (receptor)
chain: MASDSPDRPWNPPTFSPALLVVTEGDNATFTCSFSNTSESFVLNWYRESPSNQDDRLAAFPEDRSQPGQDARFRVTQLPNGRDFHMSVVRARRNDSGTYECGAISLAPKWKIKESLRAELRVTERRALEHHHHHH
notes: as for B3
B11: PD1_6XD (with 6xHis) (receptor)
chain: MASDSPDRPWNPPTFSPALLVVTEGDNATFTCSFSNTSESFVLNWYRESPSNQVDRLAAFPEDRSQPGQDARFRVTQLPNGRDFHMSVVRARRNDSGTYFCGAISLAPKWKIKESLRAELRVTERRALEHHHHHH
notes: as for B2
B12: K_78R (receptor)
chain: MASDSPDRPWNPPTFSPALLVVTEGDNATFTCSFSNTSESFVLNWYRMSPSNQTDRLAAFPEDRSQPGQDARFRVTQLPNGRDFHMSVVRARRNDSGTYLCGAISLAPKAQIKESLRAELRVTERRALEHHHHHH
notes: as for B3
B13: 6XC (receptor)
chain: MASDSPDRPWNPPTFSPALLVVTEGDNATFTCSFSNTSESFVLNWYRESPSNQVDRLAAFPEDRSQPGQDARFRVTQLPNGRDFHMSVVRARRNDSGTYICGAISLAPKWKIKESLRAELRVTERRALEHHHHHH
notes: as for B3
B14: Core L (receptor)
chain: MASDSPDRPWNPPTFSPALLVVTEGDNATFTCSFSNTSESFVLNWYRESPSNQDDRLAAFPEDRSQPGQDARFRVTQLPNGRDFHMSVVRARRNDSGTYECGAISLAPKLKIKESLRAELRVTERRALEHHHHHH
notes: as for B3
B15: T_76D (receptor)
chain: MASDSPDRPWNPPTFSPALLVVTEGDNATFTCSFSNTSESFVLNWYRMSPSNQDDKLAAFPEDRSQPGQDARFRVTQLPNGRDFHMSVVRARRNDSGTYLCGAISLAPKAQIKESLRAELRVTERRALEHHHHHH
notes: as for B3
B16: 5XD (receptor)
chain: MASDSPDRPWNPPTFSPALLVVTEGDNATFTCSFSNTSESFVLNWYRESPSNQVDRLAAFPEDRSQPGQDARFRVTQLPNGRDFHMSVVRARRNDSGTYFCGAISLAPKAKIKESLRAELRVTERRALEHHHHHH
notes: as for B3
B17: L122E (receptor)
chain: MASDSPDRPWNPPTFSPALLVVTEGDNATFTCSFSNTSESFVLNWYRMSPSNQTDKLAAFPEDRSQPGQDARFRVTQLPNGRDFHMSVVRARRNDSGTYECGAISLAPKAQIKESLRAELRVTERRALEHHHHHH
notes: as for B3
B18: PD1_4XMUT_M70 (with 6xHis) (receptor)
chain: MASDSPDRPWNPPTFSPALLVVTEGDNATFTCSFSNTSESFVLNWYRMSPSNQDDRLAAFPEDRSQPGQDARFRVTQLPNGRDFHMSVVRARRNDSGTYFCGAISLAPKAKIKESLRAELRVTERRALEHHHHHH
B19: Q133K (receptor)
chain: MASDSPDRPWNPPTFSPALLVVTEGDNATFTCSFSNTSESFVLNWYRMSPSNQTDKLAAFPEDRSQPGQDARFRVTQLPNGRDFHMSVVRARRNDSGTYLCGAISLAPKAKIKESLRAELRVTERRALEHHHHHH
notes: as for B3

Each binder was assayed against T1, human PDL1 protein (human, UniProt Q9NZQ7 19-238, limits assumed) (assay: titration ELISA, soluble His-tagged PD1 decoy on plate-coated human PD-L1, anti-His detection).
T1 construct: also called plate-captured PD-L1
T1 sequence (Q9NZQ7 19-238 limits assumed): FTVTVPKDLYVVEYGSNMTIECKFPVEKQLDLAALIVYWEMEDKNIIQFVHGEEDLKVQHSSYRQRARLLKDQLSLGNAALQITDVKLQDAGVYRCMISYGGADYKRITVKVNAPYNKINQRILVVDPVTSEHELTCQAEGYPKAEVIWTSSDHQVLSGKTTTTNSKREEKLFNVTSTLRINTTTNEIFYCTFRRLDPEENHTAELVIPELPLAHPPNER
With B1 the “Affinity to PD-L1 (relative to WT PD1)” value was 1 fold relative to WT PD1.
B2 was tested, and the “Affinity to PD-L1 (relative to WT PD1)” value was 7.5 fold relative to WT PD1.
For B3, the “Affinity to PD-L1 (relative to WT PD1)” value was 7.1 fold relative to WT PD1.
For B4, the “Affinity to PD-L1 (relative to WT PD1)” value was 7.3 fold relative to WT PD1.
In the case of B5, the “Affinity to PD-L1 (relative to WT PD1)” value is reported as 3 fold relative to WT PD1.
B6 was tested, and the “Affinity to PD-L1 (relative to WT PD1)” value was 5 fold relative to WT PD1.
With B7 the “Affinity to PD-L1 (relative to WT PD1)” value was 5.6 fold relative to WT PD1.
B8 was tested, and the “Affinity to PD-L1 (relative to WT PD1)” value was 1.3 fold relative to WT PD1.
With B9 the “Affinity to PD-L1 (relative to WT PD1)” value was 5.2 fold relative to WT PD1.
For B10, the “Affinity to PD-L1 (relative to WT PD1)” value was 1020 fold relative to WT PD1.
B11 was tested, and the “Affinity to PD-L1 (relative to WT PD1)” value was 7.2 fold relative to WT PD1.
For B12, the “Affinity to PD-L1 (relative to WT PD1)” value was 1.4 fold relative to WT PD1.
With B13 the “Affinity to PD-L1 (relative to WT PD1)” value was 1.1 fold relative to WT PD1.
In the case of B14, the “Affinity to PD-L1 (relative to WT PD1)” value is reported as 1.7 fold relative to WT PD1.
With B15 the “Affinity to PD-L1 (relative to WT PD1)” value was 8.3 fold relative to WT PD1.
B16 was tested, and the “Affinity to PD-L1 (relative to WT PD1)” value was 1.1 fold relative to WT PD1.
For B17, the “Affinity to PD-L1 (relative to WT PD1)” value was 3 fold relative to WT PD1.
In the case of B18, the “Affinity to PD-L1 (relative to WT PD1)” value is reported as 10 fold relative to WT PD1.
With B19 the “Affinity to PD-L1 (relative to WT PD1)” value was 3 fold relative to WT PD1.
